Experimental findings from PMC10132759 are described below.

For the assay, the target named is GAS7b-Avitag, biotinylated (mouse) (UniProt Q60780). Kind of assay: BLI; BLItz; 0.1 μM biotinylated Avi-tagged GAS7b, Nck or WISH captured on streptavidin (SAX) biosensors; 0.25 μM WASP or its mutants as analyte; 10 mM tris-HCl pH 7.5, 150 mM NaCl, 1 mM EDTA; local fit to a 1:1 model, Kd = Koff/Kon; n = 3.

Sequence of N-WASP without a tag (Q95107 whole entry): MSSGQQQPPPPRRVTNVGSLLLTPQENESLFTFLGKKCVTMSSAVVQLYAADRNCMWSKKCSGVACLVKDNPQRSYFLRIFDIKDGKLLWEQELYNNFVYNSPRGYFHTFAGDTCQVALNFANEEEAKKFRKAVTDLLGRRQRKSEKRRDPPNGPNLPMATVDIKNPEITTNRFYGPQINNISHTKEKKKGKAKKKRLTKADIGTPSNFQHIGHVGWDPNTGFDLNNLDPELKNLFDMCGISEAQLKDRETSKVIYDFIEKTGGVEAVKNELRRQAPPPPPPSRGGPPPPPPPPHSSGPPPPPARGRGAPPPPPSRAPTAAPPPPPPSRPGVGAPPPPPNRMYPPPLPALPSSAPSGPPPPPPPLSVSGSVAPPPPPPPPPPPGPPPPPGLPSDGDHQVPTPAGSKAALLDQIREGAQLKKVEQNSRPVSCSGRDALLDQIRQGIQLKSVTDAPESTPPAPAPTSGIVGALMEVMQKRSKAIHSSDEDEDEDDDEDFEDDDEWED

The substance “N-WASP without a tag (from UniProt Q95107 1-505) (natural protein)” registered a Kd of 4.23 nM. Substance “WASP (FLAG tag) (from UniProt P42768 1-502) (natural protein)” returned an equilibrium dissociation constant (Kd) of 4.11 nM. Take “WASP P359T (FLAG tag) (from UniProt P42768 1-502) (natural protein)”: the Kd is 6.89 nM.

In turn, “WASP P373S (FLAG tag) (from UniProt P42768 1-502) (natural protein)” showed a dissociation constant Kd of 15 nM.

The substance “WASP S339Y (FLAG tag) (from UniProt P42768 1-502) (natural protein)” showed a Kd of 7.13 nM.
